Data taken from article PMC10693867 (Journal for Immunotherapy of Cancer, 2023).

Target: CD1d(endogenous lipid)-β2M complex, as crystallized with VHH1D17 (Homo sapiens, UniProt P15813;P61769)

binding result: binds
B1: VHH1D5 (VHH)
VHH: EVQLVESGGGLVQAGGSLRLSCAASGSSFSSYTMGWFRQAPGKEREIVAGIRWSDESPIYADSVKGRFTISRDNAKNTLYLQMNSLKPEDTAVYYCAARLVPPGIPIPRTSESMRYWGKGTLVTVSS
